# Assay results as given in US6410317, “Recombinase-based methods for producing expression vectors and compositions for use in practicing the same” (Clontech Laboratories, Inc.).
# B1: loxP site 2 of donor pD3 (LoxP2-up/down) (dsDNA)
# DNA 1: AATTCGGATCCATAACTTCGTATAGCATACATTATACGAAGTTATGCGGCC
# DNA 2: AGCGGCCGCATAACTTCGTATAATGTATGCTATACGAAGTTATGGATCCG
# B2: loxP site 1 of donor pD3 (LoxP1-up/down) (dsDNA)
# DNA 1: CGCGGCCGCATAACTTCGTATAGCATACATTATACGAAGTTATCAGTCGACG
# DNA 2: AATTCGTCGACTGATAACTTCGTATAATGTATGCTATACGAAGTTATGCGGCCGCGACGT
# B3: loxP site of acceptor pCMVmycloxP (LoxPMyc-up/down) (dsDNA)
# DNA 1: AGATAACTTCGTATAGCATACATTATACGAAGTTATA
# DNA 2: GATCTATAACTTCGTATAATGTATGCTATACGAAGTTATCTCCA
# How the values were obtained:
# Cre recombinase [1] = target: T1, Cre recombinase (UniProt P06956 P06956:1-343); experiment: same reaction, second donor loxP site; conditions: chain copies: 4 per synapse (inferred); EcoRI and SapI overhangs before cloning; assayed within plasmid
# T1 sequence (P06956 whole entry, one chain of several): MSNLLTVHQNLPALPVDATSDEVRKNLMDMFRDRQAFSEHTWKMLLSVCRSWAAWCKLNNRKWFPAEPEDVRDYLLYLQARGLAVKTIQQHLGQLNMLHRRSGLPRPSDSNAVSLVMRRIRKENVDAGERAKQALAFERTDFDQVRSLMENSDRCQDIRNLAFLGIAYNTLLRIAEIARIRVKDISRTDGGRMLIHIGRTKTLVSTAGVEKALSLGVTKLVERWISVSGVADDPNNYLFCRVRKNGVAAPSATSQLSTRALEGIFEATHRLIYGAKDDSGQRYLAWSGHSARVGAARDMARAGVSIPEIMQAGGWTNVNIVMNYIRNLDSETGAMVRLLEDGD
# Method: (§1) To achieve generation of the expression vector from the donor and acceptor, the following were mixed together on ice in a standard eppendorf microcentrifuge tube: 0.5 µg pCMVmycloxP (representing the Acceptor vector); 0.5 µg pD3 (representing the Donor vector); 2 µl 10×Cre reaction buffer (10×Cre reaction buffer contains: 500 mM Tris-HCl (pH 7.5) and 300 mM NaCl); 10 mM MgCl_2, 1 µl 20×BSA (20×BSA contains 2 mg/ml BSA (NEB)); 25 Units Cre recombinase (Novagen); H_2O to 20 µl total.
# (§2) Once the reagents were mixed, the reaction was incubated for 15 mins at 37° C. Following the reaction, the mixture was heated to 65° C. for 10 mins to inactivate the Cre enzyme. Finally, an aliquot of the reaction mix was transformed to E. coli using standard methods (e.g., electroporation), and the transformed bacteria selected on LB plates containing 60 µg/ml Chloramphenicol.
# Cre recombinase [2] = target: T1, Cre recombinase; experiment: in vitro recombination pD3 x pCMVmycloxP, 50 mM Tris-HCl pH 7.5, 30 mM NaCl, 10 mM MgCl2, BSA, 37 C 15 min; chloramphenicol selection in E. coli; conditions: chain copies: 4 per synapse (inferred); AatII and EcoRI overhangs before cloning; assayed within plasmid
# Method: as §1, §2
# Cre recombinase [3] = target: T1, Cre recombinase; experiment: acceptor loxP site; same buffer, 37 C 15 min; loxP of this acceptor PCR-transferred to 10 acceptors, 27 of 30 clones correct with pDNR-luc; conditions: chain copies: 4 per synapse (inferred); SfiI and BglII overhangs before cloning; assayed within plasmid
binder,measurement,setting,value
B1,binding result,Cre recombinase [1],binds
B2,binding result,Cre recombinase [2],binds
B3,binding result,Cre recombinase [3],binds
